Among the data in the supplement of paper PMC10598134 are collision cross section values, retold here.

± gives the standard deviation.

The nature of the data set: collision cross section of modified peptide (TIMS, N2, iRT-aligned); higher = larger / more extended gas-phase ion. In short, it runs like this: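 Collision cross section values rest on the Mason-Schamp equation applied to calibrated, run-aligned mobility data from synthetic peptides. Mobility (1/K0) was calibrated with three reference ions and aligned per run to the median iRT peptide deviation, and 1–3 technical replicates of the most abundant feature per charge state were averaged. Data came from a timsTOF Pro/HT in dda-PASEF mode (nitrogen, ~2.4 mbar) after a 120-min nanoflow C18 gradient at 60 °C.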

Setting [1] is: charge state: 2, modification: Malonyl.
Setting [2] is: charge state: 2, modification: Methyl (K).
The mark [3] stands for this setting: charge state: 3, modification: Methyl (K).
Where [4] appears, read: charge state: 2, modification: Succinyl.
The mark [5] stands for this setting: charge state: 2, modification: Trimethyl (K).
Setting [6] is: charge state: 3, modification: Trimethyl (K).
Setting [7] is: charge state: 2, modification: hydroxyisobutyryl.
Setting [8] is: charge state: 2, modification: Nitro (Y).
Setting [9] is: charge state: 2, modification: Phospho (Y).
Where [10] appears, read: charge state: 2, modification: HexNAc (ST).
Where [11] appears, read: charge state: 2, modification: Acetyl (K).
The mark [12] stands for this setting: charge state: 2, modification: Butyryl.
[13] abbreviates: charge state: 2, modification: Crotonyl.
[14] abbreviates: charge state: 2, modification: Dimethyl (K).
The mark [15] stands for this setting: charge state: 3, modification: Dimethyl (K).
Setting [16] is: charge state: 2, modification: Formyl.
The mark [17] stands for this setting: charge state: 2, modification: Glutarylation.
Setting [18] is: charge state: 2, modification: GlyGly (K).
[19] abbreviates: charge state: 3, modification: GlyGly (K).
[20] abbreviates: charge state: 3, modification: Glutarylation.
[21] abbreviates: charge state: 3, modification: Succinyl.
The mark [22] stands for this setting: charge state: 3, modification: Acetyl (K).
[23] abbreviates: charge state: 2, modification: Citrullination (R).
Setting [24] is: charge state: 3, modification: Citrullination (R).
[25] abbreviates: charge state: 3, modification: Methyl (R).

With “TVSKVDDFLANEAK [_TVSK(Malonyl)VDDFLANEAK_]”, the collision cross section under setting [1] was 420.45 ± 0.57 Å².

Regarding “TVSKVDDFLANEAK [_TVSK(Methyl (K))VDDFLANEAK_]”, the collision cross section was 413.26 ± 1.6 Å² under setting [2] and 471.08 ± 3.6 Å² under setting [3].

Regarding “TVSKVDDFLANEAK [_TVSK(Succinyl)VDDFLANEAK_]”, the collision cross section under setting [4] is 425.01 ± 0.52 Å².

On to “TVSKVDDFLANEAK [_TVSK(Trimethyl (K))VDDFLANEAK_]”, for which the collision cross section under setting [5] was found to be 424.19 ± 1.1 Å² and the collision cross section under setting [6] came out at 482.88 ± 1.6 Å².

“TVSKVDDFLANEAK [_TVSK(hydroxyisobutyryl)VDDFLANEAK_]” returned a collision cross section under setting [7] of 426.08 ± 0.56 Å².

In the case of “TVTNAVVTVPAYFNDSQR [_TVTNAVVTVPAY(Nitro (Y))FNDSQR_]”, the collision cross section is 470.26 ± 1.5 Å² under setting [8] and 559.7 ± 0.32 Å² (charge state: 3, modification: Nitro (Y)).

For TYVQDILR [_TY(Nitro (Y))VQDILR_], the collision cross section under setting [8] was determined as 350.96 ± 0.47 Å².

TYVQDILR [_TY(Phospho (Y))VQDILR_] came in with a collision cross section under setting [9] of 359.66 ± 0.65 Å².

On to VDATADYICK [_VDATADY(Nitro (Y))ICK_], for which the collision cross section under setting [8] is given as 358.43 ± 0.17 Å².

On to VDATADYICK [_VDATADY(Phospho (Y))ICK_], for which the collision cross section under setting [9] worked out at 366.93 ± 0.064 Å².

Sequence “VDGDTQTTVEK [_VDGDTQTT(HexNAc (ST))VEK_]” returned a collision cross section under setting [10] of 383.53 ± 0.58 Å².

“VDIDAPDVSIEGPDAKLK [_VDIDAPDVSIEGPDAK(Acetyl (K))LK_]” registered a collision cross section under setting [11] of 462.55 ± 2.9 Å².

“VDIDAPDVSIEGPDAKLK [_VDIDAPDVSIEGPDAK(Butyryl)LK_]”: under setting [12], the collision cross section is 472.57 ± 0.49 Å².

In turn, “VDIDAPDVSIEGPDAKLK [_VDIDAPDVSIEGPDAK(Crotonyl)LK_]” yielded a collision cross section under setting [13] of 471.19 ± 1.1 Å².

As for “VDIDAPDVSIEGPDAKLK [_VDIDAPDVSIEGPDAK(Dimethyl (K))LK_]”, the collision cross section came to 457.63 ± 1.8 Å² under setting [14] and 550.49 ± 0.63 Å² under setting [15].

Under setting [16], “VDIDAPDVSIEGPDAKLK [_VDIDAPDVSIEGPDAK(Formyl)LK_]” gave a collision cross section of 461.12 Å².

In turn, “VDIDAPDVSIEGPDAKLK [_VDIDAPDVSIEGPDAK(Gluratylation)LK_]” showed a collision cross section under setting [17] of 469.43 ± 1.5 Å².

For “VDIDAPDVSIEGPDAKLK [_VDIDAPDVSIEGPDAK(GlyGly (K))LK_]”, the collision cross section by setting is: under setting [18], 470.72 ± 1.4 Å²; under setting [19], 499.87 ± 1.9 Å².

In turn, “VDIDAPDVSIEGPDAKLK [_VDIDAPDVSIEGPDAK(Malonyl)LK_]” gave a collision cross section under setting [1] of 466.92 ± 1.2 Å².

As for “VDIDAPDVSIEGPDAKLK [_VDIDAPDVSIEGPDAK(Methyl (K))LK_]”, the collision cross section is, setting by setting: under setting [2], 453.93 ± 0.34 Å²; under setting [3], 544.25 ± 0.42 Å².

Turning to “VDIDAPDVSIEGPDAKLK [_VDIDAPDVSIEGPDAK(Succinyl)LK_]”, the collision cross section under setting [4] amounted to 469.67 ± 0.79 Å².

“VDIDAPDVSIEGPDAKLK [_VDIDAPDVSIEGPDAK(Trimethyl (K))LK_]”: the collision cross section came to 465.65 ± 1.2 Å² under setting [5] and 534.07 ± 1.8 Å² under setting [6].

Regarding “VDIDAPDVSIEGPDAKLK [_VDIDAPDVSIEGPDAK(hydroxyisobutyryl)LK_]”, the collision cross section under setting [7] was determined as 475 ± 0.81 Å².

The sequence “VDIDVPDVNIEGPDAKLK [_VDIDVPDVNIEGPDAK(Acetyl (K))LK_]” displayed a collision cross section under setting [11] of 477.46 ± 4.2 Å².

“VDIDVPDVNIEGPDAKLK [_VDIDVPDVNIEGPDAK(Butyryl)LK_]” gave a collision cross section under setting [12] of 488.42 ± 0.47 Å².

Sequence “VDIDVPDVNIEGPDAKLK [_VDIDVPDVNIEGPDAK(Crotonyl)LK_]” gave a collision cross section under setting [13] of 487.32 Å².

The sequence “VDIDVPDVNIEGPDAKLK [_VDIDVPDVNIEGPDAK(Dimethyl (K))LK_]” gave a collision cross section under setting [15] of 550.04 ± 1.1 Å².

In turn, “VDIDVPDVNIEGPDAKLK [_VDIDVPDVNIEGPDAK(Gluratylation)LK_]” had a collision cross section under setting [17] of 479.85 ± 0.49 Å² and a collision cross section under setting [20] of 509.66 ± 1.3 Å².

On to “VDIDVPDVNIEGPDAKLK [_VDIDVPDVNIEGPDAK(GlyGly (K))LK_]”, for which the collision cross section worked out at 469.92 ± 1.9 Å² under setting [18] and 504.15 ± 0.79 Å² under setting [19].

For the sequence “VDIDVPDVNIEGPDAKLK [_VDIDVPDVNIEGPDAK(Malonyl)LK_]”, under setting [1], the collision cross section stood at 474.57 Å².

Take “VDIDVPDVNIEGPDAKLK [_VDIDVPDVNIEGPDAK(Methyl (K))LK_]”: the collision cross section turned out to be 457.57 ± 0.42 Å² under setting [2] and 489.73 ± 3.2 Å² under setting [3].

As to “VDIDVPDVNIEGPDAKLK [_VDIDVPDVNIEGPDAK(Succinyl)LK_]”, the collision cross section by setting is: under setting [4], 479.51 ± 1 Å²; under setting [21], 508.07 ± 2 Å².

For the sequence “VDIDVPDVNIEGPDAKLK [_VDIDVPDVNIEGPDAK(Trimethyl (K))LK_]”, the collision cross section runs as follows: under setting [5], 470.5 Å²; under setting [6], 538.87 ± 1.8 Å².

“VDIDVPDVNIEGPDAKLK [_VDIDVPDVNIEGPDAK(hydroxyisobutyryl)LK_]” had a collision cross section under setting [7] of 489.94 Å².

With “VDVEVPDVSLEGPEGKLK [_VDVEVPDVSLEGPEGK(Acetyl (K))LK_]”, the collision cross section is, setting by setting: under setting [11], 461.92 ± 2.1 Å²; under setting [22], 555.98 Å².

As to “VDVEVPDVSLEGPEGKLK [_VDVEVPDVSLEGPEGK(Butyryl)LK_]”, the collision cross section under setting [12] is reported as 469.33 ± 0.49 Å².

In turn, “VDVEVPDVSLEGPEGKLK [_VDVEVPDVSLEGPEGK(Crotonyl)LK_]” came in with a collision cross section under setting [13] of 469.01 ± 1.1 Å².

Regarding “VDVEVPDVSLEGPEGKLK [_VDVEVPDVSLEGPEGK(Dimethyl (K))LK_]”, the collision cross section is, setting by setting: under setting [14], 459.72 ± 1.8 Å²; under setting [15], 548.43 ± 0.78 Å².

Take “VDVEVPDVSLEGPEGKLK [_VDVEVPDVSLEGPEGK(Formyl)LK_]”: under setting [16], the collision cross section came to 460.51 ± 1.4 Å².

Turning to “VDVEVPDVSLEGPEGKLK [_VDVEVPDVSLEGPEGK(Gluratylation)LK_]”, the collision cross section by setting is: under setting [17], 465.13 ± 4.5 Å²; under setting [20], 502.24 Å².

“VDVEVPDVSLEGPEGKLK [_VDVEVPDVSLEGPEGK(GlyGly (K))LK_]”: the collision cross section came out at 462.5 ± 0.94 Å² under setting [18] and 497.08 ± 1.1 Å² under setting [19].

With “VDVEVPDVSLEGPEGKLK [_VDVEVPDVSLEGPEGK(Malonyl)LK_]”, the collision cross section is recorded as 466.73 ± 0.63 Å² under setting [1] and 496.84 Å² (charge state: 3, modification: Malonyl).

Take “VDVEVPDVSLEGPEGKLK [_VDVEVPDVSLEGPEGK(Methyl (K))LK_]”: the collision cross section reads like this: under setting [2], 462.48 ± 7.8 Å²; under setting [3], 551.69 ± 1.3 Å².

In turn, “VDVEVPDVSLEGPEGKLK [_VDVEVPDVSLEGPEGK(Succinyl)LK_]” had a collision cross section under setting [4] of 456.12 ± 0.34 Å² and a collision cross section under setting [21] of 501.13 ± 1.5 Å².

For the sequence “VDVEVPDVSLEGPEGKLK [_VDVEVPDVSLEGPEGK(Trimethyl (K))LK_]”, the collision cross section by setting is: under setting [5], 461.69 ± 0.55 Å²; under setting [6], 507.27 ± 0.86 Å².

“VDVEVPDVSLEGPEGKLK [_VDVEVPDVSLEGPEGK(hydroxyisobutyryl)LK_]”: the collision cross section is 470.57 ± 1.1 Å² under setting [7] and 549.45 ± 27 Å² (charge state: 3, modification: hydroxyisobutyryl).

With “VEELEGEITTLNHK [_VEELEGEIT(HexNAc (ST))TLNHK_]”, the collision cross section is, setting by setting: under setting [10], 442.1 ± 10 Å²; (charge state: 3, modification: HexNAc (ST)) 511.94 ± 0.96 Å².

Under setting [8], VELCSFSGYK [_VELCSFSGY(Nitro (Y))K_] returned a collision cross section of 364.52 ± 0.72 Å².

For VELCSFSGYK [_VELCSFSGY(Phospho (Y))K_], the collision cross section under setting [9] was 372.99 ± 0.08 Å².

Turning to “VEPGSLESSPGLGRGR [_VEPGSLESSPGLGR(Citrullination (R))GR_]”, the collision cross section came to 418.2 ± 0.21 Å² under setting [23] and 495.92 ± 3.1 Å² under setting [24].

“VEPGSLESSPGLGRGR [_VEPGSLESSPGLGR(Methyl (R))GR_]” returned a collision cross section under setting [25] of 499.14 ± 2.2 Å².

With “VEPIHAVVLPRGK [_VEPIHAVVLPR(Citrullination (R))GK_]”, the collision cross section by setting is: under setting [23], 406.23 ± 0.55 Å²; under setting [24], 492.34 ± 18 Å².

With “VEPIHAVVLPRGK [_VEPIHAVVLPR(Methyl (R))GK_]”, the collision cross section runs as follows: (charge state: 2, modification: Methyl (R)) 424.97 ± 1 Å²; under setting [25], 489.93 ± 2.2 Å².

On to VETFSGVYK [_VETFSGVY(Nitro (Y))K_], for which, under setting [8], the collision cross section came to 348.3 ± 0.55 Å².

VETFSGVYK [_VETFSGVY(Phospho (Y))K_]: the collision cross section under setting [9] worked out at 345.95 ± 0.75 Å².

Consider VETTVTSLKTK [_VETTVTSLK(Acetyl (K))TK_], for which the collision cross section reads like this: under setting [11], 378.83 ± 0.45 Å²; under setting [22], 444.47 Å².

On to VETTVTSLKTK [_VETTVTSLK(Biotin)TK_], for which, where the note is “charge state: 2, modification: Biotin”, the collision cross section amounted to 412.03 ± 1.9 Å².
